Results: the RNAGym collection of RNA variant scans (doi:10.1073/pnas.2313332121)

B1: TPR t1 (parent)
chain: GACCAAUCUGCCCUCAGAGCUCGAGAACAUCUUCGGAUGCAGAGGAGGCAGGCUUCGGUGGCGCGAUAGCGCCAACGUCCUCAACCUCCAAUGCAUCCCACCACAUGAUGAUGCCUGAAGAGCCUUGGUUUUUUG

Variants of: B1
Assay: polymerase ribozyme fitness, log enrichment relative to wild type (log ratio); higher = more active; in vitro selection for triplet polymerase activity
Summary of the method: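 Frozen incubation at −7 °C formed the core of a single, triplicate in vitro selection round applied to PCR-built, transcribed mutant libraries of each subunit of a heterodimeric triplet polymerase ribozyme. Extended constructs were gel-excised, captured with streptavidin beads and amplified by RT-PCR, and input and output libraries were Illumina-sequenced with a filter of ≥10 input reads and ≥1 read per output. Fitness is the logarithm of genotype enrichment relative to wild-type enrichment, with inverse-variance-weighted replicate averaging, and the logarithm is base 2.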

| Variant | polymerase ribozyme fitness (log ratio) |
| --- | --- |
| C62A G122A | -1.85 |
| G63C C72G | -5.46 |
| C62A U112A | -0.111 |
| C62A U112C | 0.245 |
| C62A G77U U78A A119U G128C | -5.16 |
| C62G G135U | -2.31 |
| G63A A105U | -3.59 |
| C62U A103U | -4.85 |
| C62U A103G | -5.08 |
| G63C C73U | -0.69 |
| C62U U92G C99A C124U U131C | -5.96 |
| G63U C80A | -4.88 |
| G63A U131A | -1.11 |
| G63C A84G C94A | -3.04 |
| C62U A105U | -2.19 |
| G63A A84U U92G G117A | -6.18 |
| G63C C88A C94A | -2.47 |
| G63A C82U C94U A95C C115U U132C | -2.7 |
| C62A U96G | -1.8 |
| G63C C89A U116G | -4.71 |
| G63C C79U U129C | -0.807 |
| C62A U87A | -1.8 |
| C62U U92C U116C A119G | 0.218 |
| G63C A75U | -0.329 |

| Variant | polymerase ribozyme fitness (log ratio) |
| --- | --- |
| C62A G69U | -3.2 |
| G63A C89A U131G | -3.23 |
| C62U C94A | -1.69 |
| C62A U109G | -6.74 |
| C62A U109C | -4.04 |
| G63C A103G | -5.66 |
| C62G C88U | -1.37 |
| G63U C86A | -2.12 |
| C62G G63A | -3.83 |
| C62G G63U | -7.04 |
| G63A A84C | -0.832 |
| C62U U112G | -0.737 |
| C62U U112A | 1.02 |
| G63U C86U U112A | -0.646 |
| C62U U78C A100U | -0.796 |
| C62U G113U | -3.01 |
| C62U G113C | -2.79 |
| G63A U116C C123U | -4.18 |
| C62G G71U C97A A119G | -4.38 |
| C62U A121G U125C | -0.0117 |
| G63C C101U U130G | -0.981 |
| G63A C89A | -3.19 |
| G63C C72A C79G | -5.56 |
| C62G C79U G110A | -2.71 |

| Variant | polymerase ribozyme fitness (log ratio) |
| --- | --- |
| C62A G93A | -2.07 |
| C62A G93C | -2.37 |
| C62A G110A U126G | -3.4 |
| C62U G122U | 0.2 |
| C62U G122A | -0.839 |
| C62G C102U | -4.74 |
| G63A G120A G135C | -0.591 |
| G63A C124U | 0.738 |
| C62U G63U U78G | -3.96 |
| G63A C79U A91U | -3.61 |
| G63C C88G | -1.3 |
| G63C G93A U112G | -0.619 |
| G63A A66U | -2.44 |
| C62U G117C G128A | -6.43 |
| C62A U81C C82A C98U | -4.18 |
| C62U U130A | -0.419 |
| G63A U78C C123A | -0.604 |
| G63C C85G C102A | -2.51 |
| G63U C82A | -0.955 |
| G63U C82U | -1.76 |
| G63A G77U A105G | -4.78 |
| C62G C102U G120U | -5.14 |
| C62G A111C | -1.87 |
| G63C C73G C115G | -5.56 |

| Variant | polymerase ribozyme fitness (log ratio) |
| --- | --- |
| C62A G120U G122C | -1.92 |
| G63U A83G | -1.76 |
| G63C G65A | -5.84 |
| C62G C64U | -3.51 |
| C62G U126C | -2.05 |
| C62G C104U | -1.52 |
| C62G C104A | -4.04 |
| G63A A118U | 0.468 |
| G63C A83U | -1.48 |
| C62U C79U | -0.282 |
| C62U C97U C115G | -3.22 |
| G63A G93C G113U | -5.1 |
| G63C C97U | -0.711 |
| G63A A66U U106A G117A | -4.86 |
| G63C C94A U112A U116A | -2.14 |
| C62U U78C C101G A118G U133A | -2.5 |
| C62A U130C | -1.71 |
| C62U C73U U81G A84C G113A | -3.57 |
| C62G C114U U116A | -5.69 |
| G63U C73A C97U | -4.28 |
| G63C G135U | -1.25 |
| G63U C85A | -3.39 |
| G63A C73A | -1.93 |
| G63C A105U | -2.44 |

| Variant | polymerase ribozyme fitness (log ratio) |
| --- | --- |
| C62G U106G | -4.29 |
| G63A A105U U112A | -3.65 |
| G63C C85G U87C | -2.82 |
| G63A U96C | -1.54 |
| G63A U96A | -1.81 |
| C62U A108C G117U C124A | -6.3 |
| G63U C64U | -6.21 |
| G63U C64A | -6.48 |
| G63U C64G | -4.92 |
| G63A G107U | -5.22 |
| C62G A95G | -1.49 |
| G63C U96A | -2.05 |
| G63C G120A | 0.11 |
| G63C G120U | -0.189 |
| G63A C104U C114G | -4.92 |
| C62A U87A A90U A111C | -5.52 |
| G63C C123U | 0.859 |
| G63C C123G | 0.737 |
| G63C C123A | 0.07 |
| G63C U81C | -0.941 |
| G63A U78A A119U | -1.76 |
| C62U C94U C98G G110U | -6.52 |
| G63U C70U U129A | -1.48 |
| C62U A66G | -1.54 |

| Variant | polymerase ribozyme fitness (log ratio) |
| --- | --- |
| G63A A100U | -1.77 |
| C62U C99U | -3.59 |
| C62G C70A C85A C98U C124U | -6.66 |
| C62G U78G | -2.88 |
| G63U A105U | -3.37 |
| C62U C76U G127A | -2.58 |
| C62G A90G C97U A111C | -1.19 |
| C62G C88G A91U U112A | -5.1 |
| G63A C101U | -0.216 |
| G63A U116G | -3.24 |
| G63A U116A | -3.92 |
| C62U C101U | -0.317 |
| G63A G120C | 0.337 |
| G63U A74U G77A | -5.16 |
| G63C G93A G122A | -1.99 |
| G63A U109G | -4.41 |
| G63A C88U C97U G113C | -4.04 |
| C62U G110A | -1.23 |
| G63A C86U | -0.411 |
| G63A C86A | -2.33 |
| G63A C88U G120A G122U | -0.851 |
| G63A U126A | -2.47 |
| G63A C98G G117C G128A U133C | -5.29 |
| G63C C104A | -1.86 |

| Variant | polymerase ribozyme fitness (log ratio) |
| --- | --- |
| G63A U87C | -0.482 |
| C62U C86G | -0.606 |
| G63C C79G C123U C124G | 0.0911 |
| C62U G128U | -1.78 |
| G63C C98G U116A C124G | -5.39 |
| C62G A118G | -1.44 |
| C62G U116A | -4.13 |
| C62G C82A | -1.67 |
| C62G G117A | -2.78 |
| G63A A111U G122A | -6.48 |
| G63A G69C | -6.1 |
| G63U C70A U116A | -3.62 |
| C62U U81C C94U U96C C114A | -2.82 |
| G63U C72U C82G G113C | -4.22 |
| G63C U129G | -1.93 |
| G63C U129C | -2 |
| G63C U129A | -2.09 |
| C62U C70G | -3.65 |
| C62U G117C | -3.31 |
| G63C C82G A121C G128C | -1.24 |
| C62U A74G C88A | -3.21 |
| G63A C88A | -1.42 |
| G63U C82A U126A | -3.13 |
